The source of these data is article PMC9136706.

Where “and” joins values, the source holds several entries; their conditions need not be identical. Equal entries are not always repeated.

Assay [1] concerns the target Expanded P22 virus-like particle (bacteriophage P22 capsid) (bacteriophage P22) (UniProt P26747). As to the kind of experiment: SEC-MALS. For orientation: In gel filtration, larger molecules generally elute earlier.
The target in assay [2] is DechCD40L (Dec-fused human CD40L) (bacteriophage L | human) (UniProt P29965). As to the kind of experiment: SEC.
Assay [3] concerns the target human CD40 on HEK-Blue CD40L cells (human) (UniProt P25942).
Chain of UniProt P25942 (P25942 21-277): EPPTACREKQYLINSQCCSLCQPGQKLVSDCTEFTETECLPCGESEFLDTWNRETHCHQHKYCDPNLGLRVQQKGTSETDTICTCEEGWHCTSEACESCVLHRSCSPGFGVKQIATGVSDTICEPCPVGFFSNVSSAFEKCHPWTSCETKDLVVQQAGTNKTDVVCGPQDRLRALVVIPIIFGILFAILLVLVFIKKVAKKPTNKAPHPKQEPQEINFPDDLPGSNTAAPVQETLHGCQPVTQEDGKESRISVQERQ

Chain of UniProt P26747 (P26747 whole entry, the tested form may be a part): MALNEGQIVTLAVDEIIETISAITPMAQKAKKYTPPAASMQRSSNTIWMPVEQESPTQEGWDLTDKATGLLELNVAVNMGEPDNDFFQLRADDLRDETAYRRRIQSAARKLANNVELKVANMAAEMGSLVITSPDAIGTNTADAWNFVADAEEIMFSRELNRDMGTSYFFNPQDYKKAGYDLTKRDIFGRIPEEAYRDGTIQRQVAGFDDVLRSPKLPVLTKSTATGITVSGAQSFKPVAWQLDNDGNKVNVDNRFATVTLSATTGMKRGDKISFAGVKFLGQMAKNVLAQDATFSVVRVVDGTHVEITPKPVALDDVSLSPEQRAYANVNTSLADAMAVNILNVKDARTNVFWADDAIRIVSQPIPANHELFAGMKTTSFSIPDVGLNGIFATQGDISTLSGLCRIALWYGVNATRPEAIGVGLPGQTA

Turning to “Dec (decoration protein of bacteriophage L), wild type (natural protein)”, the stoichiometry N (Dec per capsid) in assay [1] turned out to be 60.

As to “DechCD40L (Dec-fused human CD40L) (from UniProt P29965 114-261) (ligand)”, in assay [2], the percent of the total peak in the shoulder multimer peak was determined as 8.2%; the stoichiometry N was 3 and 6.

“DechCD40L bound to P22 (DechCD40L-P22) (from UniProt P29965 114-261; P26747 1-430) (complex)”: in assay [3], the fold lower EC50 of the SEAP reporter than free hCD40L stood at 53.6 fold.

What is called stoichiometry N is the number of molecules, sites or subunits per partner or assembly.
